Data set [1] addresses T1, DNA topoisomerase 1 (TOP1) (human, UniProt P11387 1-765). In words: competition.
For data set [2], the target named is T1, DNA topoisomerase 1 (TOP1). In words: EMSA.
Data set [3] deals with T1, DNA topoisomerase 1 (TOP1). The experiment in a line: competition. The source holds these as a separate data set.

T1 sequence (P11387 whole entry): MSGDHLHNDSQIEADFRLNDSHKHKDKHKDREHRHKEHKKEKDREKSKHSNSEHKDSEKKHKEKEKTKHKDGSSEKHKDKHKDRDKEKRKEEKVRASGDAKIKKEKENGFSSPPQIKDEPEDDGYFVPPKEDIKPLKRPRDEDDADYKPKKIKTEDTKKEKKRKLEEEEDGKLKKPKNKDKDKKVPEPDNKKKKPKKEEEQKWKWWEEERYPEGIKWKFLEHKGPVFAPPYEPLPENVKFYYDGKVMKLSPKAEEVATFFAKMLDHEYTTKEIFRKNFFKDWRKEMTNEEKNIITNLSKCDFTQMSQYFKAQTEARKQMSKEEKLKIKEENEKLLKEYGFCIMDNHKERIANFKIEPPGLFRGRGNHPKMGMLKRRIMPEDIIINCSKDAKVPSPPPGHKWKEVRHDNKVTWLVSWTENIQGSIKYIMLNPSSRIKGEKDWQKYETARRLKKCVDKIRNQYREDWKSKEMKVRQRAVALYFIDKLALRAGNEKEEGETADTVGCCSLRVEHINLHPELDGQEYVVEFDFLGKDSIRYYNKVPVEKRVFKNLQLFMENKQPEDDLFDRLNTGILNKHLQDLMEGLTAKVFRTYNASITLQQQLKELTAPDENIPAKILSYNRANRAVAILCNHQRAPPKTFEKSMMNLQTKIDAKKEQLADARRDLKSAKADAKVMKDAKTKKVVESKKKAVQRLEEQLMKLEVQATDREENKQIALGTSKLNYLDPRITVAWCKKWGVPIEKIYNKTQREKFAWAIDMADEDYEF

B1: 42-bp NF-kappaB binding sequence competitor (NF-kappaB-BS) (dsDNA)
DNA 1: GATCCAAGGGGACTTTCCATGGATCCAAGGGGACTTTCCATG
DNA 2: CATGGAAAGTCCCCTTGGATCCATGGAAAGTCCCCTTGGATC
Consider B1, for which, in data set [1], the binding result was “no binding”.

B2: 52-bp TOP1 substrate (dsDNA)
DNA 1: TCTAGAGGATTTCGAAGACTTAGAGAAATTTCGAAGATCCCCGGGCGAGCTC
DNA 2: GAGCTCGCCCGGGGATCTTCGAAATTTCTCTAAGTCTTCGAAATCCTCTAGA
As to B2, the binding result in data set [2] is recorded as “binds”.

B3: 22-bp TOP1 binding sequence competitor (TOP1-BS) (dsDNA)
DNA 1: AAAAAGACTTGGAAAAATTTTT
DNA 2: AAAAATTTTTCCAAGTCTTTTT
Regarding B3, the binding result in data set [3] is reported as “binds”.

Source of the values: PMC2562756.
